In article doi:10.1101/2025.05.09.653063 (bioRxiv, 2025):

Biological target: the molecule itself
Experiment: focused ion beam electron microscopy

Protein | stoichiometry N
His-tagged wild type PsmA (natural protein, Saccharolobus islandicus REY15A, UniProt C3MQ43 1-241, looked up) MAFGPAAMGYDRAITIFSPDGSLYQVDYAFEAVKKGWTAIGIKSKSGVVIASEKRKAQSLLDVDSIEKVFLIDDHVGCSFAGLASDGRVLIDYARNIALQHRLIYDEPVSIDYLTKSVADVKQMYTQHGGVRPFGVALVIAGIDKSVPKLYMTEPSGQYMPYQAVAIGQGYYTATEFLEKNYKEDLTIEDTILLALKALSATLKPNEKLTPNTVEIGYASTQTGLFLKMTSEDKNMYLQKL | 14
His-tagged PsmA S200D (natural protein, Saccharolobus islandicus REY15A, UniProt C3MQ43 1-241, looked up) MAFGPAAMGYDRAITIFSPDGSLYQVDYAFEAVKKGWTAIGIKSKSGVVIASEKRKAQSLLDVDSIEKVFLIDDHVGCSFAGLASDGRVLIDYARNIALQHRLIYDEPVSIDYLTKSVADVKQMYTQHGGVRPFGVALVIAGIDKSVPKLYMTEPSGQYMPYQAVAIGQGYYTATEFLEKNYKEDLTIEDTILLALKALDATLKPNEKLTPNTVEIGYASTQTGLFLKMTSEDKNMYLQKL | 14
His-tagged PsmA T213E (natural protein, Saccharolobus islandicus REY15A, UniProt C3MQ43 1-241, looked up) MAFGPAAMGYDRAITIFSPDGSLYQVDYAFEAVKKGWTAIGIKSKSGVVIASEKRKAQSLLDVDSIEKVFLIDDHVGCSFAGLASDGRVLIDYARNIALQHRLIYDEPVSIDYLTKSVADVKQMYTQHGGVRPFGVALVIAGIDKSVPKLYMTEPSGQYMPYQAVAIGQGYYTATEFLEKNYKEDLTIEDTILLALKALSATLKPNEKLTPNEVEIGYASTQTGLFLKMTSEDKNMYLQKL | 14
